Test results reported in US20260176314.

How the values were obtained:
[1] = target: T1, bovine β casein (variant A2) (no signal peptide)
T1 chain: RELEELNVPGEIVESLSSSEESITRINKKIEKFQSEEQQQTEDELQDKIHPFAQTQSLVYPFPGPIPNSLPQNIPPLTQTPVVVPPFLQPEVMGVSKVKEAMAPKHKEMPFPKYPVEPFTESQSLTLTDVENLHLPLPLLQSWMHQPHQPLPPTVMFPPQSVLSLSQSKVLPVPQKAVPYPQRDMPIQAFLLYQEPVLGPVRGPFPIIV

[2] = target: T2, bovine αS1 casein (variant C) (no signal peptide)
T2 chain: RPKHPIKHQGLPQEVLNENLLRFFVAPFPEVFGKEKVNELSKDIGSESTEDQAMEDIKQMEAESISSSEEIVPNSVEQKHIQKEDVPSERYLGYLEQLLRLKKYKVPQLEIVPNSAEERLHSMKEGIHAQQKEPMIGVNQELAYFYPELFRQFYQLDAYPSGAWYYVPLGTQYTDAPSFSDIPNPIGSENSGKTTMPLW

[3] = target: T3, bovine αS2 casein (no signal peptide)
T3 chain: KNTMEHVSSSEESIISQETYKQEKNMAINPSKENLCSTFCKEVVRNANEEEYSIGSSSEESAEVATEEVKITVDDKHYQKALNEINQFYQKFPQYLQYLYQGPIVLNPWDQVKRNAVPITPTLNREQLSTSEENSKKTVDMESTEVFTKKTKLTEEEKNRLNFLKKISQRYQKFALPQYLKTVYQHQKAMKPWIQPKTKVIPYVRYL

FLAG_SERPINB14_HiBiT = target: T4, FLAG_SERPINB14_HiBiT
T4 chain: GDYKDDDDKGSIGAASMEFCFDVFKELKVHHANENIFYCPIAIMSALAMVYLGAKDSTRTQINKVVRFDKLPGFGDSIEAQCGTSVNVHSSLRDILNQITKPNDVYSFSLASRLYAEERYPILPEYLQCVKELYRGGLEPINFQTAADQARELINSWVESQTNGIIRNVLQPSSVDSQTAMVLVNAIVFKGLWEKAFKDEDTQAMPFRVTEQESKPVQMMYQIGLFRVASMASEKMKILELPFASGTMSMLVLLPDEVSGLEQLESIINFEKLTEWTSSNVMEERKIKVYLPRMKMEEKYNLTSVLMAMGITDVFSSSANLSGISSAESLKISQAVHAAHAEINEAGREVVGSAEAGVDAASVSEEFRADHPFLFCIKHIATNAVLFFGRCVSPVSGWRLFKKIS

[4] = target: FLAG_TRX_SPP1 (G158-N314)_HiBiT
Sequence of FLAG_TRX_SPP1 (G158-N314)_HiBiT (chain, as listed by the source): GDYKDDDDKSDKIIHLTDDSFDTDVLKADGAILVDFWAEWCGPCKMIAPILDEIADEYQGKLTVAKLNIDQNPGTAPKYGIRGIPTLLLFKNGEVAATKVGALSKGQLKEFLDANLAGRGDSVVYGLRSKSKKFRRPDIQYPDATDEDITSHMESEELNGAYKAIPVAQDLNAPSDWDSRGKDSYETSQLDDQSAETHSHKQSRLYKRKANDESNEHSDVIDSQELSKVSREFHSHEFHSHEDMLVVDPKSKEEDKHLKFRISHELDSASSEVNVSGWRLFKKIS

B1: Fam20c(M1-R584)_FLAG (protein)
chain: MKMMLVRRFRVLILMVFLVACALHIALDLLPRLERRGARPSGEPGCSCAQPAAEVAAPGWAQVRGRPGEPPAASSAAGDAGWPNKHTLRILQDFSSDPSSNLSSHSLEKLPPAAEPAERALRGRDPGALRPHDPAHRPLLRDPGPRRSESPPGPGGDASLLARLFEHPLYRVAVPPLTEEDVLFNVNSDTRLSPKAAENPDWPHAGAEGAEFLSPGEAAVDSYPNWLKFHIGINRYELYSRHNPAIEALLHDLSSQRITSVAMKSGGTQLKLIMTFQNYGQALFKPMKQTREQETPPDFFYFSDYERHNAEIAAFHLDRILDFRRVPPVAGRMVNMTKEIRDVTRDKKLWRTFFISPANNICFYGECSYYCSTEHALCGKPDQIEGSLAAFLPDLSLAKRKTWRNPWRRSYHKRKKAEWEVDPDYCEEVKQTPPYDSSHRILDVMDMTIFDFLMGNMDRHHYETFEKFGNETFIIHLDNGRGFGKYSHDELSILVPLQQCCRIRKSTYLRLQLLAKEEYKLSLLMAESLRGDQVAPVLYQPHLEALDRRLRVVLKAVRDCVERNGLHSVVDDDLDTEHRAASARDYKDDDDK
- phosphorylation sites detected by LC-MS/MS after co-expression in Kluyveromyces lactis [1]: S30, S32, S33, S34, T39, S50, and T56
- phosphorylation sites detected by LC-MS/MS after co-expression in Kluyveromyces lactis [2]: S61, S63, T64, S79, S81, S82, S83, S90, S103, and S130
- phosphorylation sites detected by LC-MS/MS after co-expression in Kluyveromyces lactis [3]: S24, S25, S46, T145, S146, S150, S158, T159, and T163

B2: ScMNN2(M1-S36)_Fam20c(D93-R584)_FLAG (protein)
chain: MLLTKRFSKLFKLTFIVLILCGLFVITNKYMDENTSDFSSDPSSNLSSHSLEKLPPAAEPAERALRGRDPGALRPHDPAHRPLLRDPGPRRSESPPGPGGDASLLARLFEHPLYRVAVPPLTEEDVLFNVNSDTRLSPKAAENPDWPHAGAEGAEFLSPGEAAVDSYPNWLKFHIGINRYELYSRHNPAIEALLHDLSSQRITSVAMKSGGTQLKLIMTFQNYGQALFKPMKQTREQETPPDFFYFSDYERHNAEIAAFHLDRILDFRRVPPVAGRMVNMTKEIRDVTRDKKLWRTFFISPANNICFYGECSYYCSTEHALCGKPDQIEGSLAAFLPDLSLAKRKTWRNPWRRSYHKRKKAEWEVDPDYCEEVKQTPPYDSSHRILDVMDMTIFDFLMGNMDRHHYETFEKFGNETFIIHLDNGRGFGKYSHDELSILVPLQQCCRIRKSTYLRLQLLAKEEYKLSLLMAESLRGDQVAPVLYQPHLEALDRRLRVVLKAVRDCVERNGLHSVVDDDLDTEHRAASARDYKDDDDK
- phosphorylation sites detected by LC-MS/MS after co-expression in Kluyveromyces lactis [1]: S30, S32, S33, S34, S37, T39, S50, at T56
- phosphorylation sites detected by LC-MS/MS after co-expression in Pichia pastoris (FLAG_SERPINB14_HiBiT): T92, S99, S165, T202, S206, S222, S271, and S345
- Phosphorylation [4]: Yes
- phosphorylation sites detected by LC-MS/MS after co-expression in Kluyveromyces lactis [2]: S56, S61, S63, T64, S79, S81, S82, S83, S90, S103, and S130
- phosphorylation sites detected by LC-MS/MS after co-expression in Kluyveromyces lactis [3]: S23, S24, S25, S46, S52, S71, S72, S73, S76, T145, S146, S150, S158, and T159
